The target of assay [1] is human CD33 S131T (human, UniProt P20138 18-364). Nature of the assay: flow cytometry, HEK293-T, IgG.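 Note: CD33 point mutants transiently expressed, antibody binding measured by fluorescence in duplicate, background subtracted and scaled to binding on wild-type CD33 as 100%.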 In general terms: Flow cytometry measures light scatter and fluorescence of single cells or particles in a stream.
Description: (§1) An alanine scan on human CD33 was performed to the determine the residues on CD33 that are involved in binding to the antibodies investigated. […] Briefly, a mutation library of CD33 was created by high-throughput, site-directed mutagenesis. Each residue was individually mutated to alanine, with alanine codons mutated to serine. The mutant library was arrayed in 384-well microplates and transiently transfected into HEK293-T. Following transfection, cells were incubated with the indicated antibodies (IgG or Fab) at concentrations pre-determined using an independent immunofluorescence titration curve on wild type CD33. […] Binding of each antibody to each mutant clone was determined in duplicates. For each point, background fluorescence was subtracted from the raw data, which were then normalized to antibody reactivity with wild type CD33.
(§2) Antibodies were screened for binding to the human CD33 variants in IgG format. […] For each mutation, background fluorescence was subtracted from the raw data, which were then normalized to antibody reactivity with wild-type CD33.
In assay [2] the target is human CD33 S131K (human, UniProt P20138 18-364). The experiment in a line: flow cytometry, HEK293-T, IgG.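 Note: CD33 point mutants transiently expressed, antibody binding measured by fluorescence in duplicate, background subtracted and scaled to binding on wild-type CD33 as 100%.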
human CD33 S131K, sequence (P20138 18-364 S131K limits assumed): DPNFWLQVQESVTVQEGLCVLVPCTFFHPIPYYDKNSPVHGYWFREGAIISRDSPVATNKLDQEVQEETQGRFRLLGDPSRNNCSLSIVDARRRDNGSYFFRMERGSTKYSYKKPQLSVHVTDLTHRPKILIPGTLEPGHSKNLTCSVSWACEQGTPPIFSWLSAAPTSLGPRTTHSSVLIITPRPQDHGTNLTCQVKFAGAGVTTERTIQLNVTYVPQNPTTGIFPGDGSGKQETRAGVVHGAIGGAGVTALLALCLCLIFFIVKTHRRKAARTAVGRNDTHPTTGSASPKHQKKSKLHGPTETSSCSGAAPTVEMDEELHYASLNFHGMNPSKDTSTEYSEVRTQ
Description: as §1, §2
Assay [3] deals with human CD33 S131N (human, UniProt P20138 18-364). Nature of the assay: flow cytometry, HEK293-T, IgG.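 Note: CD33 point mutants transiently expressed, antibody binding measured by fluorescence in duplicate, background subtracted and scaled to binding on wild-type CD33 as 100%.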
human CD33 S131N, sequence (P20138 18-364 S131N limits assumed): as the sequence (P20138 18-364 S131K limits assumed) above, with K114N counted along it
Description: as §1, §2
The target of assay [4] is human CD33 P132Q (human, UniProt P20138 18-364). Nature of the assay: flow cytometry, HEK293-T, IgG.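 Note: CD33 point mutants transiently expressed, antibody binding measured by fluorescence in duplicate, background subtracted and scaled to binding on wild-type CD33 as 100%.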
human CD33 P132Q, sequence (P20138 18-364 P132Q limits assumed): as the sequence (P20138 18-364 S131K limits assumed) above, with K114S, P115Q counted along it
Description: as §1, §2
For assay [5], the target named is human CD33 P132N (human, UniProt P20138 18-364). Nature of the assay: flow cytometry, HEK293-T, IgG.
human CD33 P132N, sequence (P20138 18-364 P132N limits assumed): as the sequence (P20138 18-364 S131K limits assumed) above, with K114S, P115N counted along it
Description: as §1, §2
The target of assay [6] is human CD33 S131M (human, UniProt P20138 18-364). Nature of the assay: flow cytometry, HEK293-T, IgG.
human CD33 S131M, sequence (P20138 18-364 S131M limits assumed): as the sequence (P20138 18-364 S131K limits assumed) above, with K114M counted along it
Description: as §1, §2
Assay [7] deals with human CD33 S131F (human, UniProt P20138 18-364). Nature of the assay: flow cytometry, HEK293-T, IgG.
human CD33 S131F, sequence (P20138 18-364 S131F limits assumed): as the sequence (P20138 18-364 S131K limits assumed) above, with K114F counted along it
Description: as §1, §2
Assay [8] concerns the target human CD33 P132Y (human, UniProt P20138 18-364). Nature of the assay: flow cytometry, HEK293-T, IgG.
Description: as §1, §2
The target in assay [9] is human CD33 P132H (human, UniProt P20138 18-364). The experiment in a line: flow cytometry, HEK293-T, IgG.
human CD33 P132H, sequence (P20138 18-364 P132H limits assumed): as the sequence (P20138 18-364 S131K limits assumed) above, with K114S, P115H counted along it
Description: as §1, §2
Assay [10] deals with human CD33 P132D (human, UniProt P20138 18-364). The experiment in a line: flow cytometry, HEK293-T, IgG.
human CD33 P132D, sequence (P20138 18-364 P132D limits assumed): as the sequence (P20138 18-364 S131K limits assumed) above, with K114S, P115D counted along it
Description: as §1, §2
Assay [11] deals with human CD33 P132V (human, UniProt P20138 18-364). The experiment in a line: flow cytometry, HEK293-T, IgG.
human CD33 P132V, sequence (P20138 18-364 P132V limits assumed): as the sequence (P20138 18-364 S131K limits assumed) above, with K114S, P115V counted along it
Description: as §1, §2
Assay [12] deals with human CD33 P132L (human, UniProt P20138 18-364). The experiment in a line: flow cytometry, HEK293-T, IgG.
human CD33 P132L, sequence (P20138 18-364 P132L limits assumed): as the sequence (P20138 18-364 S131K limits assumed) above, with K114S, P115L counted along it
Description: as §1, §2
The target in assay [13] is human CD33 S131W (human, UniProt P20138 18-364). Nature of the assay: flow cytometry, HEK293-T, IgG.
human CD33 S131W, sequence (P20138 18-364 S131W limits assumed): as the sequence (P20138 18-364 S131K limits assumed) above, with K114W counted along it
Description: as §1, §2
Assay [14] addresses human CD33 S131I (human, UniProt P20138 18-364). Nature of the assay: flow cytometry, HEK293-T, IgG.
Description: as §1, §2
In assay [15] the target is human CD33 L134I (human, UniProt P20138 18-364). The experiment in a line: flow cytometry, HEK293-T, IgG.
human CD33 L134I, sequence (P20138 18-364 L134I limits assumed): as the sequence (P20138 18-364 S131K limits assumed) above, with K114S, L117I counted along it
Description: as §1, §2
Assay [16] deals with human CD33 P132T (human, UniProt P20138 18-364). Nature of the assay: flow cytometry, HEK293-T, IgG.
human CD33 P132T, sequence (P20138 18-364 P132T limits assumed): as the sequence (P20138 18-364 S131K limits assumed) above, with K114S, P115T counted along it
Description: as §1, §2
Assay [17] addresses human CD33 S131D (human, UniProt P20138 18-364). Nature of the assay: flow cytometry, HEK293-T, IgG.
Description: as §1, §2
The target in assay [18] is human CD33 P132S (human, UniProt P20138 18-364). Nature of the assay: flow cytometry, HEK293-T, IgG.
human CD33 P132S, sequence (P20138 18-364 P132S limits assumed): as the sequence (P20138 18-364 S131K limits assumed) above, with K114S, P115S counted along it
Description: as §1, §2
Assay [19] deals with human CD33 L134Q (human, UniProt P20138 18-364). Nature of the assay: flow cytometry, HEK293-T, IgG.
human CD33 L134Q, sequence (P20138 18-364 L134Q limits assumed): as the sequence (P20138 18-364 S131K limits assumed) above, with K114S, L117Q counted along it
Description: as §1, §2
Assay [20] deals with human CD33 P132K (human, UniProt P20138 18-364). The experiment in a line: flow cytometry, HEK293-T, IgG.
human CD33 P132K, sequence (P20138 18-364 P132K limits assumed): as the sequence (P20138 18-364 S131K limits assumed) above, with K114S, P115K counted along it
Description: as §1, §2
Assay [21] concerns the target human CD33 P132F (human, UniProt P20138 18-364). Nature of the assay: flow cytometry, HEK293-T, IgG.
Description: as §1, §2
For assay [22], the target named is human CD33 L134R (human, UniProt P20138 18-364). The experiment in a line: flow cytometry, HEK293-T, IgG.
human CD33 L134R, sequence (P20138 18-364 L134R limits assumed): as the sequence (P20138 18-364 S131K limits assumed) above, with K114S, L117R counted along it
Description: as §1, §2
The target of assay [23] is human CD33 L134T (human, UniProt P20138 18-364). The experiment in a line: flow cytometry, HEK293-T, IgG.
human CD33 L134T, sequence (P20138 18-364 L134T limits assumed): as the sequence (P20138 18-364 S131K limits assumed) above, with K114S, L117T counted along it
Description: as §1, §2
Assay [24] concerns the target human CD33 L134F (human, UniProt P20138 18-364). The experiment in a line: flow cytometry, HEK293-T, IgG.
Description: as §1, §2
Assay [25] deals with human CD33 L134M (human, UniProt P20138 18-364). The experiment in a line: flow cytometry, HEK293-T, IgG.
human CD33 L134M, sequence (P20138 18-364 L134M limits assumed): as the sequence (P20138 18-364 S131K limits assumed) above, with K114S, L117M counted along it
Description: as §1, §2
Assay [26] addresses human CD33 S131Q (human, UniProt P20138 18-364). Nature of the assay: flow cytometry, HEK293-T, IgG.
Description: as §1, §2
Assay [27] concerns the target human CD33 S131H (human, UniProt P20138 18-364). Nature of the assay: flow cytometry, HEK293-T, IgG.
Description: as §1, §2
In assay [28] the target is human CD33 S131Y (human, UniProt P20138 18-364). Nature of the assay: flow cytometry, HEK293-T, IgG.
human CD33 S131Y, sequence (P20138 18-364 S131Y limits assumed): as the sequence (P20138 18-364 S131K limits assumed) above, with K114Y counted along it
Description: as §1, §2
Assay [29] has as its target T1, human wild-type CD33 (human, UniProt P20138 18-364).
T1 construct: also called SIGLEC3; P67
Nature of the assay: flow cytometry, IgG at 0.25 ug/ml on HEK293-T cells expressing CD33 against vector alone.
Description: Binding of the antibodies to the transfected cells and the optimal assay conditions were evaluated in 384-well format. Detection of cellular expression was measured via high-throughput flow cytometry. Serial dilutions of each antibody were tested for immunoreactivity against cells expressing CD33 or vector alone. The optimal screening concentration for each antibody was determined based on the raw signal values and signal-to-background calculations. Each point represents the mean of four replicates.

human CD33 S131T, sequence (P20138 18-364 S131T limits assumed): as the sequence (P20138 18-364 S131K limits assumed) above, with K114T counted along it
human CD33 S131D, sequence (P20138 18-364 S131D limits assumed): as the sequence (P20138 18-364 S131K limits assumed) above, with K114D counted along it
human CD33 S131H, sequence (P20138 18-364 S131H limits assumed): as the sequence (P20138 18-364 S131K limits assumed) above, with K114H counted along it
human CD33 P132Y, sequence (P20138 18-364 P132Y limits assumed): as the sequence (P20138 18-364 S131K limits assumed) above, with K114S, P115Y counted along it
human CD33 S131Q, sequence (P20138 18-364 S131Q limits assumed): as the sequence (P20138 18-364 S131K limits assumed) above, with K114Q counted along it
human CD33 P132F, sequence (P20138 18-364 P132F limits assumed): as the sequence (P20138 18-364 S131K limits assumed) above, with K114S, P115F counted along it
human CD33 S131I, sequence (P20138 18-364 S131I limits assumed): as the sequence (P20138 18-364 S131K limits assumed) above, with K114I counted along it
human CD33 L134F, sequence (P20138 18-364 L134F limits assumed): as the sequence (P20138 18-364 S131K limits assumed) above, with K114S, L117F counted along it
T1 sequence (P20138 18-364 limits assumed): as the sequence (P20138 18-364 S131K limits assumed) above, with K114S counted along it

B1: Refmab #3 (antibody, human IgG1, V domains shown)
VH: QVQLVQSGAEVKKPGSSVKVSCKASGYTFTDYNMHWVRQAPGQGLEWIGYIYPYNGGTGYNQKFKSKATITADESTNTAYMELSSLRSEDTAVYYCARGRPAMDYWGQGTLVTVSS
VL: DIQMTQSPSSLSASVGDRVTITCRASESVDNYGISFMNWFQQKPGKAPKLLIYAASNQGSGVPSRFSGSGSGTDFTLTISSLQPDDFATYYCQQSKEVPWTFGQGTKVEIK
notes: tested in IgG format
In the case of B1, the “Mean % WT Binding” value in assay [1] worked out at 116 % WT binding; in assay [2] it was 87.7 % WT binding; in assay [3], 118 % WT binding; in assay [4], 80.1 % WT binding; in assay [5], 94.5 % WT binding; in assay [6] it was 91.9 % WT binding. In addition, the “Mean % WT Binding” value in assay [7] was determined as 103 % WT binding; in assay [8], 85.2 % WT binding; in [9] it was 87.8 % WT binding; in assay [10], 92.7 % WT binding; in assay [11], 86.6 % WT binding; in [12], 94.4 % WT binding. Further, the “Mean % WT Binding” value was 91.9 % WT binding in assay [13]; 95.7 % WT binding in assay [14]; 108 % WT binding in [15]; 106 % WT binding in assay [16]; 93.9 % WT binding in [17]; 95.8 % WT binding in [18]. The “Mean % WT Binding” value amounted to 87.7 % WT binding in [19]; 65 % WT binding in [20]; 79.4 % WT binding in assay [21]; 1 % WT binding in [22]; 101 % WT binding in assay [23]; 104 % WT binding in assay [24]. Also, the “Mean % WT Binding” value in [25] was found to be 106 % WT binding; in [26], 93.9 % WT binding; in assay [27], 100 % WT binding; in [28], 97.4 % WT binding.

B2: Refmab #1 (antibody, human IgG1, V domains shown)
VH: EVQLVQSGAEVKKPGSSVKVSCKASGYTITDSNIHWVRQAPGQSLEWIGYIYPYNGGTDYNQKFKNRATLTVDNPTNTAYMELSSLRSEDTAFYYCVNGNPWLAYWGQGTLVTVSS
VL: DIQLTQSPSTLSASVGDRVTITCRASESLDNYGIRFLTWFQQKPGKAPKLLMYAASNQGSGVPSRFSGSGSGTEFTLTISSLQPDDFATYYCQQTKEVPWSFGQGTKVEVK
notes: Full-length MAb format, human IgG1; also called hP67.6
Take B2: the “Signal:Background” value in assay [29] was 44 signal:background ratio.

B3: Refmab #1 (antibody, human IgG1, V domains shown)
VH: EVQLVQSGAEVKKPGSSVKVSCKASGYTITDSNIHWVRQAPGQSLEWIGYIYPYNGGTDYNQKFKNRATLTVDNPTNTAYMELSSLRSEDTAFYYCVNGNPWLAYWGQGTLVTVSS
VL: DIQLTQSPSTLSASVGDRVTITCRASESLDNYGIRFLTWFQQKPGKAPKLLMYAASNQGSGVPSRFSGSGSGTEFTLTISSLQPDDFATYYCQQTKEVPWSFGQGTKVEVK
notes: tested in IgG format; also called hP67.6
On to B3, for which the “Mean % WT Binding” value stood at 97.2 % WT binding in assay [1]; 102 % WT binding in [2]; 94.6 % WT binding in assay [3]; 91.7 % WT binding in assay [4]; 91.4 % WT binding in assay [5]; 105 % WT binding in assay [6]. In addition, the “Mean % WT Binding” value in assay [7] stood at 95.6 % WT binding; in assay [8] it was 93.5 % WT binding; in assay [9], 84.9 % WT binding; in assay [10], 89.9 % WT binding; in [11], 105 % WT binding; in assay [12], 94.6 % WT binding. Besides, the “Mean % WT Binding” value was 97.6 % WT binding in [13]; 96.6 % WT binding in assay [14]; 106 % WT binding in [15]; 98.9 % WT binding in assay [16]; 91.9 % WT binding in assay [17]; 92.9 % WT binding in assay [18]. In addition, the “Mean % WT Binding” value in assay [19] was determined as 83 % WT binding; in [20], 99.6 % WT binding; in assay [21], 91.3 % WT binding; in [22] it was 3.1 % WT binding; in assay [23], 91.6 % WT binding; in [24], 92.5 % WT binding. Further, the “Mean % WT Binding” value in assay [25] came to 81.2 % WT binding; in assay [26], 101 % WT binding; in assay [27], 96.4 % WT binding; in assay [28], 97.7 % WT binding.

B4: Refmab #2 (antibody, human IgG1, V domains shown)
VH: QVQLVQSGAEVKKPGSSVKVSCKASGGTFSDYAISWVRQAPGQGLEWMGRIIPILGVADYAQKFQGRVTITADKSTRTAYMELSSLRSEDTAVYYCARNWADAFDIWGQGTMVTVSS
VL: DIQLTQSPSSLSASVGDRVTITCRASQGISSVLAWYQQKPGKAPKLLIYDASSLESGVPSRFSGSGSGTDFTLTISSLQPEDFATYYCQQFDSSITFGQGTKLEIK
notes: tested in IgG format
Consider B4, for which the “Mean % WT Binding” value in assay [1] stood at 111 % WT binding; in assay [2], 91.2 % WT binding; in assay [3] it was 126 % WT binding; in assay [4] it was 83.4 % WT binding; in assay [5] it was 100 % WT binding; in [6], 108 % WT binding. For the same molecule, the “Mean % WT Binding” value in assay [7] was determined as 111 % WT binding; in assay [8], 65 % WT binding; in assay [9], 101 % WT binding; in assay [10], 73.6 % WT binding; in [11] it was 102 % WT binding; in assay [12], 116 % WT binding. The “Mean % WT Binding” value in [13] was 92.4 % WT binding; in [14], 110 % WT binding; in [15], 105 % WT binding; in [16], 103 % WT binding; in assay [17] it was 101 % WT binding; in [18], 110 % WT binding. Moreover, the “Mean % WT Binding” value in [19] was determined as 77.4 % WT binding; in [20] it was 119 % WT binding; in [21] it was 65.1 % WT binding; in assay [22] it was 2.5 % WT binding; in assay [23], 99.2 % WT binding; in assay [24], 106 % WT binding. In addition, the “Mean % WT Binding” value in [25] came out at 105 % WT binding; in [26] it was 110 % WT binding; in [27] it was 112 % WT binding; in [28], 98.5 % WT binding.

B5: Refmab #4 (antibody, human IgG1, V domains shown)
VH: QVQLVQSGAEVKKPGESVKVSCKASGYTFTNYGMNWVKQAPGQGLEWMGWINTYTGEPTYADKFQGRVTMTTDTSTSTAYMEIRNLGGDDTAVYYCARWSWSDGYYVYFDYWGQGTSVTVSS
VL: DIVMTQSPDSLTVSLGERTTINCKSSQSVLDSSTNKNSLAWYQQKPGQPPKLLLSWASTRESGIPDRFSGSGSGTDFTLTIDSPQPEDSATYYCQQSAHFPITFGQGTRLEIK
notes: tested in IgG format
As to B5, the “Mean % WT Binding” value in assay [1] was 102 % WT binding; in [2] it was 100 % WT binding; in assay [3], 105 % WT binding; in assay [4] it was 86.9 % WT binding; in assay [5] it was 100 % WT binding; in [6] it was 97.6 % WT binding. Besides, the “Mean % WT Binding” value in [7] turned out to be 91.8 % WT binding; in assay [8], 78.6 % WT binding; in assay [9] it was 92.7 % WT binding; in assay [10] it was 99.6 % WT binding; in assay [11] it was 94.7 % WT binding; in [12], 96.7 % WT binding. Besides, the “Mean % WT Binding” value in assay [13] came to 87.5 % WT binding; in assay [14] it was 99.6 % WT binding; in assay [15], 94.4 % WT binding; in [16], 99.8 % WT binding; in [17] it was 97.5 % WT binding; in assay [18] it was 102 % WT binding. Further, the “Mean % WT Binding” value in assay [19] was determined as 86.8 % WT binding; in [20], 102 % WT binding; in assay [21], 71.3 % WT binding; in assay [22], 2.4 % WT binding; in assay [23] it was 90.3 % WT binding; in assay [24], 90.6 % WT binding. Moreover, the “Mean % WT Binding” value in [25] worked out at 99 % WT binding; in assay [26], 97.3 % WT binding; in assay [27] it was 103 % WT binding; in [28] it was 85.7 % WT binding.
